Experiment [1] deals with recombinant human KLK5 (human) (UniProt Q9Y337). The experiment in a line: pro-KLK7 LC/MS assay, 5 nM KLK5.
For experiment [2] the target is unchanged. The experiment in a line: pro-KLK7 coupled assay, 5 nM KLK5.
For experiment [3] the target is unchanged. The experiment in a line: pro-KLK1 LC/MS assay, 0.5 nM KLK5.
For experiment [4] the target is unchanged. The experiment in a line: Kiapp assay curve, 0.125 nM KLK5, Z-VPR-pNA.
The target is the same in experiment [5]. The experiment in a line: Kiapp assay curve, 0.250 nM KLK5, Z-VPR-pNA.
For experiment [6] the target is unchanged. The experiment in a line: Kiapp assay curve, 0.500 nM KLK5, Z-VPR-pNA.
Experiment [7] has the same target. The experiment in a line: Kiapp assay curve, 0.063 nM KLK5, Z-VPR-pNA.
The target is the same in experiment [8]. The experiment can be described thus: pro-KLK1 coupled assay, 0.5 nM KLK5.
The target is the same in experiment [9]. The experiment can be described thus: Kiapp, KLK5 0.5-0.0625 nM, Z-VPR-pNA.
Experiment [10] shares this target. The experiment in a line: KLK5 direct activity assay, 5 nM KLK5, Boc-VPR-AMC.
The target is the same in experiment [11]. The experiment can be described thus: direct activity assay, 5 nM KLK5, Boc-VPR-AMC.
For experiment [12] the target is unchanged. The experiment can be described thus: pro-KLK1 coupled assay, 0.5 nM KLK5, 31.25 nM pro-KLK1, PFR-AMC.
For experiment [13] the target is unchanged. The experiment can be described thus: pro-KLK7 coupled assay, 5 nM KLK5, 125 nM pro-KLK7, suc-LLVY-AMC.
Experiment [14] shares this target. The experiment can be described thus: pro-KLK7 LC/MS assay, 5 nM KLK5, 15 nM pro-KLK7, nM.
The target is the same in experiment [15]. The experiment can be described thus: array SPR imaging (IBIS MX96), antibody amine-coupled, human KLK5 injected 0-300 nM, 25 C.
Experiment [16] has the same target. The experiment in a line: Kiapp as the y-intercept of the line of IC50 (nM) versus KLK5 (nM), Z-VPR-pNA.
Experiment [17] has the same target. The experiment in a line: pro-KLK1 LC/MS assay, 0.5 nM KLK5, 300 nM pro-KLK1; box column 2 of 3; no unit printed, nM per text.
Experiment [18] has the same target. The experiment in a line: pro-KLK1 LC/MS assay, 0.5 nM KLK5, 300 nM pro-KLK1; box column 3 of 3; no unit printed, nM per text.
The target is the same in experiment [19]. The experiment in a line: pro-KLK1 LC/MS assay, 0.5 nM KLK5, 300 nM pro-KLK1; box column 1 of 3; no unit printed, nM per text.

As usually defined, the IC50 is the midpoint of a concentration-inhibition curve. As usually defined, the koff is the first-order rate constant of dissociation.

recombinant human KLK5 (human), sequence (Q9Y337 67-293): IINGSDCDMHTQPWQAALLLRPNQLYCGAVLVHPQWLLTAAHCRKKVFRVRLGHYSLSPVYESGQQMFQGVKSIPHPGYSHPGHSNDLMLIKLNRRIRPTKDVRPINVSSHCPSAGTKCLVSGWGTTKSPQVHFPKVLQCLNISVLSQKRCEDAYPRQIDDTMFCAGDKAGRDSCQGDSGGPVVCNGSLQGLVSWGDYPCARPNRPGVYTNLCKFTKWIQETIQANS

B1: 10H3 (antibody, V domains shown)
VH: QSVKESEGGLIKPTDTLTLTCTVSGFSLSTFAINWVRQAPGNGLEWIGAIGRGGSAYYASWAKSRSTITKNTNLNTVTLKMTRPTAADTATYFCARENAGSGWGELDIWGPGTLVTVSS
VL: AYEMTQTPASVEVAVGGTVTINCQASESISSDLAWYQQKPGQRPKLLIYAASTLASGVPSRFKGSGSGTEFTLSISGVQCADAATYYCQQGYTWNNVDNVFGGGTEVVVK
Consider B1, for which the IC50 in experiment [1] turned out to be 0.97 nM; in [2], 1.17 nM; in experiment [3], 0.08 nM; in experiment [8], 0.122 nM; in experiment [11] it was 1.09 nM; in experiment [14], 0.968 nM. Also, the results for the IC50 in experiment [17], in experiment [18] and in experiment [19] were 0.116 nM, 0.13 nM and 0.00485 nM, respectively. Moreover, the IC50 (read off the curve) in experiment [4] turned out to be 0.3 nM; in experiment [5], 0.3 nM; in experiment [6], 0.4 nM; in [7] it was 0.2 nM; in [10], 1 nM; in [12], 0.1 nM. Moreover, in experiment [13], the IC50 (read off the curve) was 1 nM. Besides, the Ki in experiment [9] is 0.51 nM; in experiment [16] it was 0.393 nM. Further, the koff in experiment [15] turned out to be 0.000589 s⁻¹.

B2: 9H3 (antibody, V domains shown)
VH: QSVKESEGGLFKPTDTLTLTCTVSGFSLSGYGVSWVRQAPGKGLEYIGFIGSGGSAYYASWAKSRSTITRNTNLNTVTLKMTRLTAADTATYFCARDNVGGDMSLDIWGPGTLVTVSS
VL: DIVMTQTPASVSEPVGGTVTIKCQASQNINNYLSWYQQKPGQPPKQLIYAASTLASGVPSRFKGSGSGTQFTLTISDLECADAATYYCHQDYTSNNVDNTFGGGTEVVVK
B2: the half-inhibitory concentration (IC50) in [1] turned out to be 1.05 nM; in experiment [2], 1.05 nM; in experiment [3] it was 0.09 nM; in [8], 0.12 nM; in experiment [11], 1.08 nM; in experiment [14], 1.05 nM. Moreover, the concentration for half-maximal inhibition (IC50) in experiment [17] came out at 0.0802 nM; in [18] it was 0.104 nM; in [19], 0.0728 nM. The IC50 (read off the curve) was determined as 0.07 nM in [4]; 0.1 nM in experiment [5]; 0.2 nM in experiment [6]; 0.05 nM in [7]; 0.9 nM in [10]; 0.1 nM in experiment [12]. For the same molecule, in [13], the IC50 (read off the curve) was 1 nM. Moreover, the Ki in experiment [9] came to 0.07 nM; in experiment [16], 0.0697 nM. Further, the dissociation rate constant (koff) in experiment [15] was 0.000143 s⁻¹.

B3: 9F2 (antibody, V domains shown)
VH: QSVKESEGGLFKPTDNLTLTCTVSGFSLSSYGVSWVRQAPGNGLEYIGFIGSGGSPYYASWAKSRSTITRNTNLNTVTLKMTSLTAADTATYFCARDDVGGGKSLDIWGPGTLVTVSS
VL: NIVMTQTPASVEVAVGGTVIIKCQASQSISNYLSWYHQKSGQRPRLLIYSASTLASGVPSRFKGSGSGTQFTLTISDLECADAATYYCHQDYTSNSVDNTFGGGTEVVVK
With B3, the IC50 in experiment [1] is 1.26 nM; in [2], 0.93 nM; in [3], 0.14 nM; in experiment [8], 0.137 nM; in experiment [11], 1.01 nM; in experiment [14], 1.26 nM. For the same molecule, the IC50 is 0.137 nM in experiment [17], 0.18 nM in experiment [18] and 0.108 nM in experiment [19]. Moreover, the IC50 (read off the curve) is 0.2 nM in experiment [4]; 0.2 nM in [5]; 0.3 nM in experiment [6]; 0.2 nM in experiment [7]; 1 to 2 nM in experiment [10]; 0.1 to 0.2 nM in experiment [12]. Besides, the IC50 (read off the curve) in experiment [13] was found to be 0.9 nM. Moreover, the Ki in experiment [9] came out at 0.43 nM; in [16], 0.377 nM. Also, the off-rate constant (koff) in [15] amounted to 0.000339 s⁻¹.

B4: 10C8 (antibody, V domains shown)
VH: QSVKESEGGLFKPTDNLTLTCTVSGFSLSSYGVSWVRQAPGNGLEYIGFIGSGGFAYYASWAKSRSTITRNTNLNTVTLKMTSLTAADTATYFCARDDVGGGRSLDIWGPGTVVTVSS
VL: NIVMTQTPASVEVAMGGTVIIKCQASQSISTYLSWYQQKPGQPPKLLIYSASTLASGVSSRFEGSGSGTQFTLTISGVQCADAATYYCHQDYTSNNVDNTFGGGTEVVVK
As to B4, the half-maximal inhibitory concentration (IC50) is 1.8 nM in experiment [1]; 1.16 nM in experiment [2]; 0.14 nM in experiment [3]; 0.151 nM in experiment [8]; 0.89 nM in experiment [11]; 1.8 nM in experiment [14]. Moreover, the figures for the half-maximal inhibitory concentration (IC50) in experiment [17], in experiment [18] and in [19] were 0.225 nM, 0.149 nM and 0.0587 nM, respectively. Also, the IC50 (read off the curve) in experiment [4] is 0.2 nM; in experiment [5], 0.2 nM; in experiment [6], 0.2 nM; in [7] it was 0.2 nM; in [10], 0.9 nM; in experiment [12], 0.1 to 0.2 nM. The IC50 (read off the curve) in experiment [13] stood at 1 nM. Also, the values for the Ki in experiment [9] and in experiment [16] were 0.265 nM and 0.277 nM, respectively. The dissociation rate constant (koff) in experiment [15] came to 6.16e-05 s⁻¹.

B5: 8B7 (antibody, V domains shown)
VH: QSVKESEGGLFKPTDNLTLTCTVSGFSLSNYGVTWVRQAPGNGLEYIGFIGSSGSAYYASWAKSRSTITRNTNLNTVTLKMTSLTAADTATYFCARDDVGGGKSLDIWGPGTLVTVSS
VL: NIVMTQTPASVEVAVGGTVTIKCQASQSIGSYLSWYQQKPGQPPKLLIYDASNLASGVPSRFKGSGSGTQFTLSISDLECADAATYYCHQDYTSNNVDNTFGGGTEVVIK
Regarding B5, the IC50 in experiment [1] is 1.29 nM; in experiment [2], 0.92 nM; in [3], 0.09 nM; in experiment [8], 0.125 nM; in experiment [11], 1.1 nM; in [14], 1.29 nM. Also, the concentration for half-maximal inhibition (IC50) is 0.132 nM in experiment [17], 0.106 nM in experiment [18] and 0.0473 nM in [19]. For the same molecule, the IC50 (read off the curve) was 0.2 nM in [4]; 0.2 nM in [5]; 0.2 nM in experiment [6]; 0.2 nM in experiment [7]; 1 to 2 nM in [10]; 0.1 nM in [12]. The IC50 (read off the curve) in [13] amounted to 1 nM. Also, the Ki came to 0.32 nM in experiment [9] and 0.264 nM in [16]. Further, in experiment [15], the koff turned out to be 0.000547 s⁻¹.

B6: 9B6 (antibody, V domains shown)
VH: QSVKESEGGLFKPTDNLTLTCTVSGFSLSNYGVTWVRQAPGNGLEYIGFIGSGGSAYYASWAKSRSTITRNTNLNTVTLKMTSLTAADTATYFCARDDVGGGKSLDIWGPGTLVTVSS
VL: NIVMTQTPASVEVAVGGTVVIKCQASQNIGDYLSWYQQKPGQRPKLLIYSASTLASGVPSRFKGSGSGTQFTLTISDLECADAATYYCHQDYTSNDVENTFGGGTEVVVK
Take B6: the IC50 in experiment [1] worked out at 1.42 nM; in [2], 0.95 nM; in experiment [3] it was 0.12 nM; in experiment [8], 0.074 nM; in experiment [11], 1.17 nM; in [14], 1.42 nM. For the same molecule, the IC50 in [17] was 0.202 nM; in experiment [18], 0.0879 nM; in experiment [19], 0.0659 nM. Further, the IC50 (read off the curve) is 0.1 nM in experiment [4]; 0.1 nM in experiment [5]; 0.2 nM in [6]; 0.1 nM in experiment [7]; 1 to 2 nM in experiment [10]; 1 nM in experiment [13]. The figures for the Ki in experiment [9] and in experiment [16] were 0.185 nM and 0.165 nM, respectively. Moreover, the koff in [15] turned out to be 0.000178 s⁻¹.
